Data on one molecule can be found in patent US20180289832A1 (MAGENTA THERAPEUTICS, published 2018).

Experiment [1] has as its target T1, human CD137 (hCD137) stably over-expressed on Jurkat cells (human, UniProt Q07011 24-255).
T1 construct: also called 4-1BB; TNFRSF9
In words: flow cytometry on Jurkat cells over-expressing hCD137; antibody titration 4 h at 4 C, anti-mouse AF488 secondary, geometric MFI. Here is the method: (§1) Jurkat cells (i.e., an immortalized human T lymphocyte cell line) characterized by stable, over-expression of hCD137 were plated at 20,000 cells/well and stained with a titration of primary murine anti-CD137 antibody BBK2 (BBK2-mIgG1) for 4 hours at 4° C. Secondary anti-mouse AF488 stain, at a constant amount, was added for 30 minutes at 4° C. After washing, plates were run on a flow cytometer and binding of BBK2-mIgG1 (and the negative control, i.e., mIgG1) was determined based on geometric mean fluorescence intensity in the AF488 channel.
(In flow cytometry, cells or beads pass a laser one at a time.)

Experiment [2] concerns the target T1, human CD137 (hCD137) stably …. In words: flow cytometry on Jurkat cells stably over-expressing hCD137; titration of the primary antibody 4 h at 4 °C, secondary anti-mouse AF488, gMFI. How it is done:
as §1

T1 sequence (Q07011 24-255 limits assumed): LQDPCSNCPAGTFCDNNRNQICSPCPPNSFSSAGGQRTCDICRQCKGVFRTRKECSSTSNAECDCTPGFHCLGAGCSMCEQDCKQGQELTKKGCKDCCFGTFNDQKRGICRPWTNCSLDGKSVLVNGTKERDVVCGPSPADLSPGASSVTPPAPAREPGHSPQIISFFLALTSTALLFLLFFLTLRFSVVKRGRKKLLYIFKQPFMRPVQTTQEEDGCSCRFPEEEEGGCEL

B1: murine anti-CD137 antibody BBK2 (BBK2-mIgG1) (antibody, V domains shown)
VH: QVQLQQPGAELVRPGASVKLSCKASGYTFTSYWINWVKQRPGQGLEWIGNIYPSDSYTNYNQKFKDKATLTVDKSSNTVYMQLNSPTSEDSAVYYCTRNGVEGYPHYYAMEYWGQGTSVTVSS
VL: DIQMTQTTSALSASLGDRVTIGCRASQDLSNHLYWYQQKPDGTVKLLIYYTSRLHSGVPSRFSGSGSGTDYSLTIRNLEQEDVATYFCQQGYTLPYTFGGGTKLEIK
notes: Mouse monoclonal IgG1, kappa (Thermo Fisher); also called BBK-mIgG1; murine BBK2
As for B1, the EC50 (commonly the concentration needed to bring the measured effect to its halfway point) in experiment [1] was determined as 35 µM; in experiment [2], 0.035 nM.
